For two molecules, Kd results are on record in patent US20200148779A1 (Bristol-Myers Squibb, published 2020).

Where only a bound is given, the exact number is not on record here.

The target in the assay is T1, human-CD40-Fc (human, UniProt P25942 21-193).
T1 construct: generated in house; also called hCD40-Fc; not shown: Fc part of the in-house hCD40-Fc is not described
The experiment in a line: SPR, dAb-Fc on immobilized hCD40-Fc, apparent KD (avidity). A general note: SPR reads the build-up and loss of mass on a sensor chip optically.

T1 sequence (P25942 21-193): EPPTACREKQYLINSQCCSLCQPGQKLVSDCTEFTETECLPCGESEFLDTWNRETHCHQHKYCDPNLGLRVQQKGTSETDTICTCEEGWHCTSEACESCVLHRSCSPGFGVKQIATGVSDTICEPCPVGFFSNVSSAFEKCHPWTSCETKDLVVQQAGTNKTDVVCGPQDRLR

B1: 3h56-269-IgG1.1f (Fc fusion)
chain: EVQLLESGGGLVQPGGSLRLSCAASGFTFRDYEMWWVRQAPGKGLERVSAINPQGTRTYYADSVKGRFTISRDNSKNTLYLQMNSLRAEDTAVYYCAKLPFRFSDRGQGTLVTVSSASTEPKSCDKTHTCPPCPAPEAEGAPSVFLFPPKPKDTLMISRTPEVTCVVVDVSHEDPEVKFNWYVDGVEVHNAKTKPREEQYNSTYRVVSVLTVLHQDWLNGKEYKCKVSNKALPSSIEKTISKAKGQPREPQVYTLPPSREEMTKNQVSLTCLVKGFYPSDIAVEWESNGQPENNYKTTPPVLDSDGSFFLYSKLTVDKSRWQQGNVFSCSVMHEALHNHYTQKSLSLSPGK
Take B1: the Kd is under 1 nM.

B2: 3h56-269-IgG1.3f (Fc fusion)
chain: EVQLLESGGGLVQPGGSLRLSCAASGFTFRDYEMWWVRQAPGKGLERVSAINPQGTRTYYADSVKGRFTISRDNSKNTLYLQMNSLRAEDTAVYYCAKLPFRFSDRGQGTLVTVSSASTEPKSCDKTHTCPPCPAPEAEGAPSVFLFPPKPKDTLMISRTPEVTCVVVDVSHEDPEVKFNWYVDGVEVHNAKTKPREEQYNSTYRVVSVLTVLHQDWLNGKEYKCKVSNKALPAPIEKTISKAKGQPREPQVYTLPPSREEMTKNQVSLTCLVKGFYPSDIAVEWESNGQPENNYKTTPPVLDSDGSFFLYSKLTVDKSRWQQGNVFSCSVMHEALHNHYTQKSLSLSPGK
Turning to B2, the Kd was under 1 nM.
